Four molecules from patent US20070072210A1 (published 2007) can be followed below.

The labels stand for the following.
B1: FLAG-tagged C-terminal BAAT1 (amino acids 176-821) (other)
chain: MRGGAEGQPCLPGGDWPACAQKIMDHVEESLCSAATPKVTQALNVLTTTFGRCQSPWTEALWVRLSPRVACLLERDPIPAAHSFVDLLLCVARSPVFSSSDGSLWETVARALSCLGPTHMGPLALGILKLEHCPQALRTQAFQVLLQPLACVLKATVQAPGPPGLLDGTADDATTVDTLLASKSSCAGLLCRTLAHLEELQPLPQRPSPWPQASLLGATVTVLRLCDGSAAPASSVGGHLCGTLAGCVRVQRAALDFLGTLSQGTGPQELVTQALAVLLECLESPGSSPTVLKKAFQATLRWLLSSPKTPGCSDLGPLIPQFLRELFPVLQKRLCHPCWEVRDSALEFLTQLSRHWGGQADFRCALLASEVPQLALQLLQDPESYVRASAVTAMGQLSSQGLHAPTSPEHAEARQSLFLELLHILSVDSEGFPRRAVMQVFTEWLRDGHADAAQDTEQFVATVLQAASRDLDWEVRAQGLELALVFLGQTLGPPRTHCPYAVALPEVAPAQPLTEALRALCHVGLFDFAFCALFDCDRPVAQKSCDLLLFLRDKIASYSSLREARGSPNTASAEATLPRWRAGEQAQPPGDQEPEAVLAMLRSLDLEGLRSTLAESSDHVEKSPQSLLQDMLATGGFLQGDEADCY
notes: Expressed in 293T cells; co-precipitated with BRCA1 by the anti BRCA1 21A1 antibody and blotted with anti FLAG; not shown: FLAG tag
B2: GST-tagged BRCA1 BRCT domains, breast cancer-associated mutant Met1775Arg (other, UniProt P38398 1560-1863, looked up)
chain: GTPYLESGISLFSDDPESDPSEDRAPESARVGNIPSSTSALKVPQLKVAESAQSPAAAHTTDTAGYNAMEESVSREKPELTASTERVNKRMSMVVSGLTPEEFMLVYKFARKHHITLTNLITEETTHVVMKTDAEFVCERTLKYFLGIAGGKWVVSYFWVTQSIKERKMLNEHDFEVRGDVVNGRNHQGPKRARESQDRKIFRGLEICCYGPFTNRPTDQLEWMVQLCGASVVKELSSFTLGTGVHPIVVVQPDAWTEDNGFHAIGQMCEAPVVTREWVLDSVALYQCQELDTYLIPQIPHSHY
notes: domain: BRCT domains; also called M1775R; not shown: GST tag
B3: FLAG-tagged BAAT1 (full length) (other)
chain: MDPECAQLLPALCAVLVDPGQPVADDTCLEKLLDWFKTVTEGESSVVLLQEHPCLVELLSHVLKVQDLSSGVLSFSLRLAGTFAAQENCFQYLQQGELLPGLFGEPGPLGRATWAVPTVRSGWIQGLRSLAQHPSALRFLADHGAVDTIFSLQGDSSLFVASAASQLLVHVLALSMRGGAEGQPCLPGGDWPACAQKIMDHVEESLCSAATPKVTQALNVLTTTFGRCQSPWTEALWVRLSPRVACLLERDPIPAAHSFVDLLLCVARSPVFSSSDGSLWETVARALSCLGPTHMGPLALGILKLEHCPQALRTQAFQVLLQPLACVLKATVQAPGPPGLLDGTADDATTVDTLLASKSSCAGLLCRTLAHLEELQPLPQRPSPWPQASLLGATVTVLRLCDGSAAPASSVGGHLCGTLAGCVRVQRAALDFLGTLSQGTGPQELVTQALAVLLECLESPGSSPTVLKKAFQATLRWLLSSPKTPGCSDLGPLIPQFLRELFPVLQKRLCHPCWEVRDSALEFLTQLSRHWGGQADFRCALLASEVPQLALQLLQDPESYVRASAVTAMGQLSSQGLHAPTSPEHAEARQSLFLELLHILSVDSEGFPRRAVMQVFTEWLRDGHADAAQDTEQFVATVLQAASRDLDWEVRAQGLELALVFLGQTLGPPRTHCPYAVALPEVAPAQPLTEALRALCHVGLFDFAFCALFDCDRPVAQKSCDLLLFLRDKIASYSSLREARGSPNTASAEATLPRWRAGEQAQPPGDQEPEAVLAMLRSLDLEGLRSTLAESSDHVEKSPQSLLQDMLATGGFLQGDEADCY
notes: Transiently expressed in 293T cells; the clone used was IMAGE BC015632; also called FLAG-BAAT1; not shown: FLAG tag
B4: BAAT1 (endogenous, from human cell lysates) (other)
chain: B3 chain
notes: Endogenous cellular protein detected with the anti-BAAT1 antibody; also called endogenous BAAT1; hBAAT1

Experiment [1] deals with T1, BRCA1 (endogenous, from human cell lysates) (human, UniProt P38398 1-1863).
T1 construct: Endogenous cellular protein immunoprecipitated with anti BRCA1 antibodies C-20 or 21A1; also called breast cancer susceptibility gene 1 protein; endogenous BRCA1
Kind of experiment: immunoprecipitation with anti BRCA1 21A1 from 293T cells, anti FLAG blot. From the text: (§1) GST-BRCA1 fragments were precipitated with GSH beads and samples were immunoblotted with anti FLAG antibody. […] After immunoprecipitation with anti BRCA1 21A1 antibody, samples were immunoblotted with FLAG antibody. […] NS: non-specific signals. […] Two different anti BRCA1 antibodies (C-20 and 21A1) and anti ATM antibodies (N-17 and 2C1) were used for the assay.

Experiment [2] has as its target B3. Description: GST pulldown from co-transfected 293T cells, anti FLAG blot. As for the experimental part: as §1
(§2) Co-Immunoprecipitation and GST Pull-Down Assays: HeLa or NMEs cells were lysed for 30 min in 500 ml of lysis buffer (50 mM Tris-HCl pH 7.5, 100 mM NaCl, 0.5% NP-40, 0.5% DOC, 5 mM EDTA, and protease inhibitors: 100 mg/ml PMSF, 2 mg/ml Aprotinin, 2 mg/ml Leupeptin). One milligram of total cell lysates was incubated with 10 mg/ml of ethidium bromide and the primary antibody for 3 h followed by incubation with either Protein A or Protein G agarose beads overnight at 4° C. The immunocomplexes were separated on SDS-PAGE gels and visualized by Western blotting. […] After pulldown with GSH beads, samples were separated in SDS-polyacrylamide gel and visualized by Western blotting.

For experiment [3], the target named is T1, BRCA1 (endogenous, from human cell …). Description: co-immunoprecipitation of endogenous proteins from HeLa cells. As for the experimental part: as §1, §2

On to B1, for which the binding result in experiment [1] is given as “binds”.

As to B2, the binding result in experiment [2] is listed as “no binding”.

With B3, the binding result in experiment [1] is “binds”.

Take B4: in experiment [3], the binding result was “binds”.
